Measurements from the supplement of paper PMC12855868.

B1: library; numbered along this chain (parent)
chain: MAAAGGARLLRAASAVLGGPAGRWLHHAGSRAGSSGLLRNRGPGGSAEASRSLSVSARARSSSEDKITVHFINRDGETLTTKGKVGDSLLDVVVENNLDIDGFGACEGTLACSTCHLIFEDHIYEKLDAITDEENDMLDLAYGLTDRSRLGCQICLTKSMDNMTVRVPETVADARQSIDVGKTS

Variants of: B1
Experiment: scaled log2 fold change in cell abundance, elesclomol vs control (0 = silent mean, 1 = nonsense mean) (scaled log2 ratio); higher = higher viability under elesclomol (loss of FDX1 cuproptosis function)
Conditions: glucose 10 mM
Protocol: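 Deep mutational scan of full-length human FDX1: a pooled saturation-mutagenesis ORF library (every residue 2-184 mutated to all 19 amino acids plus stop, and silent codons where available) was expressed by lentivirus in FDX1-knockout ABC1 (14 days) or HEK293T (11 days) cells grown with elesclomol (ES) or DMSO control. Variant abundance came from ORF sequencing. The log2 fold change (ES vs control, mean of duplicates) was centred on the silent-variant mean (0) and scaled to the nonsense-variant mean (1). Higher values mean greater viability under ES, i.e. loss of FDX1 function in cuproptosis.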

[1] = with ABC1 FDX1 KO, elesclomol 5 nM, 14 days
[2] = with HEK293T FDX1 KO, elesclomol 40 nM, 11 days
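Also: variant abundance is its share of total variant reads in each endpoint sample, from next-generation sequencing of the integrated ORF PCR-amplified out of genomic DNA.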

| Variant | scaled log2 fold change [1] | scaled log2 fold change [2] |
| --- | --- | --- |
| N73D | 0.282 | -0.23 |
| N73F | 0.238 | -0.334 |
| N73Q | -0.00176 | 0.207 |
| N73Y | 0.218 | -0.741 |
| N73M | -0.526 | 0.0726 |
| N73K | 0.136 | 1.39 |
| N73V | 0.102 | 0.976 |
| N73R | 0.219 | -0.254 |
| N73A | 0.491 | -0.233 |
| N73S | 0.237 | – |
| N73E | 0.311 | 0.823 |
| N73T | -0.183 | – |
| N73P | 0.17 | -0.147 |
| N73G | 0.582 | 0.401 |
| N73H | -0.0805 | -0.159 |
| N73W | -0.0509 | – |
| N73C | -0.441 | -0.308 |
| N73L | -0.0741 | 0.0359 |
| N73I | -1.24 | – |
| K66I | -0.298 | -0.755 |
| K66F | -0.158 | -0.676 |
| K66H | 0.0524 | -0.795 |
| K66R | 0.114 | -0.744 |
| K66L | -0.00608 | -0.145 |

| Variant | scaled log2 fold change [1] | scaled log2 fold change [2] |
| --- | --- | --- |
| K66M | -0.188 | -0.226 |
| K66C | -0.0989 | -0.0245 |
| K66T | 0.0453 | 0.851 |
| K66W | -0.5 | -0.676 |
| K66E | -0.297 | -0.118 |
| K66Q | -0.382 | 0.00416 |
| K66D | -0.097 | – |
| K66Y | -0.0452 | -0.0505 |
| K66V | 0.0478 | -0.102 |
| K66P | -0.38 | -0.254 |
| K66S | -0.679 | -0.304 |
| K66N | -0.167 | 0.199 |
| K66A | -0.0856 | 0.00324 |
| K66G | 0.301 | 0.245 |
| F71V | 0.271 | -0.215 |
| F71H | 1.22 | 1.17 |
| F71N | 1.07 | 1.17 |
| F71C | 0.161 | 0.0168 |
| F71W | 0.102 | -0.726 |
| F71T | 0.523 | 0.991 |
| F71M | 0.0919 | 1.2 |
| F71A | 0.63 | 0.751 |
| F71S | 0.983 | 1.08 |
| F71K | 1.18 | 1.46 |

| Variant | scaled log2 fold change [1] | scaled log2 fold change [2] |
| --- | --- | --- |
| F71L | -0.0155 | -0.376 |
| F71P | 1.18 | 1.13 |
| F71I | -0.753 | -0.554 |
| F71Y | 0.112 | -0.0161 |
| F71E | 1.02 | 1.5 |
| F71G | 1.09 | 0.752 |
| F71R | 1.04 | 1.38 |
| F71Q | 1.3 | 0.999 |
| F71D | 1.1 | 1.37 |
| D65R | -0.395 | -0.257 |
| D65M | -0.334 | -0.318 |
| D65Y | 0.323 | 0.288 |
| D65I | 0.277 | – |
| D65Q | 0.0546 | 0.293 |
| D65N | -0.21 | 0.98 |
| D65W | 0.185 | 0.126 |
| D65K | -0.369 | -0.531 |
| D65S | -0.464 | 0.216 |
| D65P | -0.000175 | 0.99 |
| D65T | -0.192 | – |
| D65V | 0.161 | -0.27 |
| D65L | 0.175 | -0.119 |
| I67M | 0.35 | 0.129 |
| I67P | 0.222 | -0.205 |

| Variant | scaled log2 fold change [1] | scaled log2 fold change [2] |
| --- | --- | --- |
| I67C | 0.2 | -0.121 |
| I67N | 0.44 | 0.681 |
| I67Y | 0.135 | -0.731 |
| I67G | 0.747 | 0.579 |
| I67A | 0.473 | 0.322 |
| I67W | 0.658 | -0.0492 |
| I67F | 0.0413 | -0.46 |
| I67Q | 0.436 | 0.135 |
| I67T | 0.0745 | 0.365 |
| I67K | 0.691 | 0.44 |
| I67V | -0.37 | 0.832 |
| I67H | 0.608 | 0.601 |
| I67S | 0.0219 | 0.253 |
| I67E | 0.963 | 0.881 |
| I67D | 1.08 | 1.13 |
| I67L | 0.113 | 0.514 |
| I67R | 0.504 | 0.363 |
| T68F | -0.000655 | 0.914 |
| T68S | -0.0825 | 0.833 |
| T68H | 0.349 | -0.699 |
| T68A | -0.0418 | -0.389 |
| T68V | 0.247 | 0.769 |
| T68G | -0.0825 | 0.801 |
| T68I | 0.0915 | 0.0716 |

| Variant | scaled log2 fold change [1] | scaled log2 fold change [2] |
| --- | --- | --- |
| T68Y | 0.308 | 0.0848 |
| T68K | -0.155 | -0.329 |
| T68R | -0.0852 | -0.377 |
| T68N | 0.00412 | -0.202 |
| T68E | -0.318 | -0.497 |
| T68M | -0.209 | 0.641 |
| T68W | 0.0579 | 0.896 |
| T68D | 0.0867 | 0.164 |
| T68P | 0.317 | 0.911 |
| T68C | 0.309 | -0.148 |
| T68L | 0.248 | 0.885 |
| T68Q | 0.0568 | -0.103 |
| I72G | -0.24 | -0.556 |
| I72T | -0.0209 | -0.405 |
| I72L | -0.315 | -0.275 |
| I72E | -0.111 | -0.295 |
| I72N | 0.0538 | -0.293 |
| I72F | -0.0218 | -0.0982 |
| I72R | -0.783 | 0.539 |
| I72Y | -1.04 | -0.583 |
| I72H | 0.00982 | -0.581 |
